The source of these data is paper PMC3561947.

The target of this test is His-tagged human polι P680A (pJRM86) (human). The test can be described thus: far-Western, overlay or dot blot.

The substance “in vitro translated 35S-labeled ubiquitin (from pBP129) (from UniProt P0CG47 1-76) (natural protein)” showed a percent of wild type (% of wild type) of 40.
